Results taken from paper doi:10.1101/2025.09.11.675649.

Target: Amuc1033^6S-GlcNAc (Akkermansia muciniphila) (UniProt B2UQX4)
Assay: SEC-MALS

stoichiometry N: 2
Substance: Amuc1033^6S-GlcNAc (from UniProt B2UQX4 1-581) (enzyme)
